Source: US5210024A, “Isolation of strains of Saccharomyces cerevisiae having altered α-acetyltransferase activity” (priority 1991, dated 1993)
Ends that are not written are not given here.

How the values were obtained:
[1] = target: T1, M-N^α -AT (methionine N^α -acetyltransferase) (Saccharomyces cerevisiae, UniProt Q06504); experiment: N^α-acetylation of synthetic peptides by methionine N^α-acetyltransferase; format: biochemical; set-up: concentration or dose not given beside the values
T1 construct: endogenous in cells; host or cells: Saccharomyces cerevisiae aaa1 (AAA1-null) mutant
T1 sequence (Q06504 1-195): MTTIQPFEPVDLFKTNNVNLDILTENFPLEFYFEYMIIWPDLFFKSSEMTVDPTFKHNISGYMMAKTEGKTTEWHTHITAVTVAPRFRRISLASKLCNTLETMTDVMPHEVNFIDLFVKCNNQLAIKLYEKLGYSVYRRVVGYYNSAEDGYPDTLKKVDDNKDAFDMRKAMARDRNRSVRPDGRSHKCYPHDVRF
T1 sequence (Q12387 2-796 partner limits assumed): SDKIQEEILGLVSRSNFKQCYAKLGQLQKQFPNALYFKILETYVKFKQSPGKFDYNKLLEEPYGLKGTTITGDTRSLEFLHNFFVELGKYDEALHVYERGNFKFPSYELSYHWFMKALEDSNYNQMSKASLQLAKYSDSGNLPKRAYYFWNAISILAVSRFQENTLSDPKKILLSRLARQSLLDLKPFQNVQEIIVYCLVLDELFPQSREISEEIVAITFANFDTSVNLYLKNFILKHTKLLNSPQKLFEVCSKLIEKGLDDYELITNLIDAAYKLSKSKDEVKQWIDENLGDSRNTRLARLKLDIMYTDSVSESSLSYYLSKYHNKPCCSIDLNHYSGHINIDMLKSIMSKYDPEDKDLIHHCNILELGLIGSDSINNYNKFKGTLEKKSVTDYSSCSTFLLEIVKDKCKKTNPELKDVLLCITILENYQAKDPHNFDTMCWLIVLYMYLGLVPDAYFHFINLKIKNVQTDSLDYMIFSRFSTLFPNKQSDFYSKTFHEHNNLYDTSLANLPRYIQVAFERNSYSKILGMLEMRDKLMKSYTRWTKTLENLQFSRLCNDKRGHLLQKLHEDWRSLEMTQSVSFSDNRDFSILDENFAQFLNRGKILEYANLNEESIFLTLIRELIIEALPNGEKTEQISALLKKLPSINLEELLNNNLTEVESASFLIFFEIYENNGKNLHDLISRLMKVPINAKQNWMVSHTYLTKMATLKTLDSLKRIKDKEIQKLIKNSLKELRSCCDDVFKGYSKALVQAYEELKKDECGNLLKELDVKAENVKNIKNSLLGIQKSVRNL
Procedure: (§1) Aliquots of the lysate were added to 1.5 ml Eppendorf tubes containing a reaction mixture of 50 mM HEPES, pH 7.4, 150 mM KCl, 1 mM DTT, 25 μM[^3 H]acetyl coenzyme A (0.5 μCi) and 50 μM ACTH (1-24) with an adjusted final volume of 100 μl. The assay mixture was incubated at 30 C for 30 min. The reaction was stopped by adding 0.5 M acetic acid and chilled in an ice bath. […] The radioactivity in the control represented acetylation of endogenous compounds is subtracted from each sample determination. One unit of activity is defined as 1 pmol of acetyl residues incorporated into ACTH (1-24) under standard assay conditions.
(§2) This second N^α -acetyltransferase is a methionine N^α -acetyltransferase activity, and is designated as "M-N^α -AT." This second N^α -acetyltransferase is the subject of U.S. patent application of John A. Smith and Fang-Jen S. Lee, filed Oct. […] In order to compare the relative specificity and activity of the AAA1 N^α -acetyltransferase ("N^α -AT") of the present invention with the methionine N^α -acetyltransferase activity (M-N^α -AT) of U.S. patent application of John A. Smith and Fang-Jen S. Lee, filed Oct. […] These peptides were assessed for their ability to serve as substrates for the two enzymes. In Table 2, the effect of the amino terminal amino acid on activity is investigated; in Table 3, the effect of the penultimate amino terminal amino acid on activity is investigated.

[2] = target: T2, N^α -AT (AAA1 N^α -acetyltransferase) (Saccharomyces cerevisiae, UniProt P07347+P12945); experiment: N^α-acetylation of synthetic peptides by AAA1 N^α-acetyltransferase ([3H]acetyl coenzyme A incorporation); format: biochemical; set-up: concentration or dose not given beside the values
T2 construct: isolates N^α -acetyltransferase by treating yeast cells with lyticase; endogenous in cells; host or cells: Saccharomyces cerevisiae cells (native enzyme)
T2 sequence (P12945 2-854): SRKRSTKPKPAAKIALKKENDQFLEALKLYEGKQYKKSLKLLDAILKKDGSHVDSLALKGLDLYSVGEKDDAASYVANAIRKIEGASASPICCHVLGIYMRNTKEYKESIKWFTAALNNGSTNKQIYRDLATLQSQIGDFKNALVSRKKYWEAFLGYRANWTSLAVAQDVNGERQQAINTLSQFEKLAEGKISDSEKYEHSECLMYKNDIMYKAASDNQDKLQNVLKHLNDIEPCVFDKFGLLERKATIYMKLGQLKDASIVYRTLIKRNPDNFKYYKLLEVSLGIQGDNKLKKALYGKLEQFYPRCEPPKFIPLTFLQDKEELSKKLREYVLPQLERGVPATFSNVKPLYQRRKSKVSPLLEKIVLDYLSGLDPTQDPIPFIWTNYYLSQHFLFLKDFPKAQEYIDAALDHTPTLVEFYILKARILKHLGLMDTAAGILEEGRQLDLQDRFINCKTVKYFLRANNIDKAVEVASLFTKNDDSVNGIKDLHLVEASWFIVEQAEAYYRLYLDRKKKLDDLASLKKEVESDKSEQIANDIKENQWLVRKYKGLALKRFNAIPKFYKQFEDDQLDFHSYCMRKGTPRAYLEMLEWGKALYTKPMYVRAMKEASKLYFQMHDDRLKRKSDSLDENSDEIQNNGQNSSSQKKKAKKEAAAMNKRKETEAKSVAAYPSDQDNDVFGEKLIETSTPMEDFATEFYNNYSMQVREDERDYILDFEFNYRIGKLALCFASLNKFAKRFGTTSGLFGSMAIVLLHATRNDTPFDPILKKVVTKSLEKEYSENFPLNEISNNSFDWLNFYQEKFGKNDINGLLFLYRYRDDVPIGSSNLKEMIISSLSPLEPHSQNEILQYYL
T2 sequence (P07347 1-238): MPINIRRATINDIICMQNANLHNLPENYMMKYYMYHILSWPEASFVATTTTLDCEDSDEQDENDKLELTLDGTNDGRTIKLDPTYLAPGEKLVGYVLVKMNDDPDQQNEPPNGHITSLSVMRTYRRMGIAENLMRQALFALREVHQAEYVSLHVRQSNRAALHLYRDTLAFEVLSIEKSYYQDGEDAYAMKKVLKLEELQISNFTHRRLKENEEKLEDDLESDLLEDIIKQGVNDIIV
Procedure: as §1, §2

[3] = Table 2: relative activity for N^α-acetylation of synthetic peptide substrate, influence of the amino terminal residue
[4] = Table 3: relative activity for N^α-acetylation of synthetic peptide substrate, influence of the penultimate amino terminal residue

Substance | Activity (%) (mean activity ± S.D.) M-N^α -AT [1, 3] | Activity (%) (mean activity ± S.D.) N^α -AT [2, 3] | Activity (%) (mean activity ± S.D.) M-N^α -AT [1, 4] | Activity (%) (mean activity ± S.D.) N^α -AT [2, 4]
AIPETQKGVIFYESHGKLEYKDIP (AIPETQKGVIFYESHGKLEYKDIP) | 0% | 0% | – | –
CIPETQKGVIFYESHGKLEYKDIP (CIPETQKGVIFYESHGKLEYKDIP) | 0% | 0% | – | –
DIPETQKGVIFYESHGKLEYKDIP (DIPETQKGVIFYESHGKLEYKDIP) | 0% | 0% | – | –
EIPETQKGVIFYESHGKLEYKDIP (EIPETQKGVIFYESHGKLEYKDIP) | 0% | 0% | – | –
FIPETQKGVIFYESHGKLEYKDIP (FIPETQKGVIFYESHGKLEYKDIP) | 0% | 9 ± 2% | – | –
GIPETQKGVIFYESHGKLEYKDIP (GIPETQKGVIFYESHGKLEYKDIP) | 0% | 23 ± 3% | – | –
HIPETQKGVIFYESHGKLEYKDIP (HIPETQKGVIFYESHGKLEYKDIP; also: tritium label) | 0% | 19 ± 2% | – | –
IIPETQKGVIFYESHGKLEYKDIP (IIPETQKGVIFYESHGKLEYKDIP) | 0% | 0% | – | –
KIPETQKGVIFYESHGKLEYKDIP (KIPETQKGVIFYESHGKLEYKDIP) | 0% | 0% | – | –
LIPETQKGVIFYESHGKLEYKDIP (LIPETQKGVIFYESHGKLEYKDIP) | 0% | 0% | – | –
MIPETQKGVIFYESHGKLEYKDIP (MIPETQKGVIFYESHGKLEYKDIP) | 0% | 15 ± 2% | – | –
NIPETQKGVIFYESHGKLEYKDIP (NIPETQKGVIFYESHGKLEYKDIP) | 0% | 0% | – | –
PIPETQKGVIFYESHGKLEYKDIP (PIPETQKGVIFYESHGKLEYKDIP) | 0% | 70 ± 4% | – | –
QIPETQKGVIFYESHGKLEYKDIP (QIPETQKGVIFYESHGKLEYKDIP) | 0% | 0% | – | –
RIPETQKGVIFYESHGKLEYKDIP (RIPETQKGVIFYESHGKLEYKDIP) | 0% | 0% | – | –
SAPETQKGVIFYESHGKLEYKDIP (SAPETQKGVIFYESHGKLEYKDIP) | – | – | 0% | 168 ± 8%
SCPETQKGVIFYESHGKLEYKDIP (SCPETQKGVIFYESHGKLEYKDIP) | – | – | 0% | 136 ± 7%
SDPETQKGVIFYESHGKLEYKDIP (SDPETQKGVIFYESHGKLEYKDIP) | – | – | 0% | 171 ± 9%
SEPETQKGVIFYESHGKLEYKDIP (SEPETQKGVIFYESHGKLEYKDIP) | – | – | 0% | 121 ± 6%
SFPETQKGVIFYESHGKLEYKDIP (SFPETQKGVIFYESHGKLEYKDIP) | – | – | 0% | 118 ± 6%
SGPETQKGVIFYESHGKLEYKDIP (SGPETQKGVIFYESHGKLEYKDIP) | – | – | 0% | 84 ± 5%
SHPETQKGVIFYESHGKLEYKDIP (SHPETQKGVIFYESHGKLEYKDIP) | – | – | 0% | 125 ± 6%
SKPETQKGVIFYESHGKLEYKDIP (SKPETQKGVIFYESHGKLEYKDIP) | – | – | 0% | 151 ± 6%
SLPETQKGVIFYESHGKLEYKDIP (SLPETQKGVIFYESHGKLEYKDIP) | – | – | 0% | 126 ± 5%
SMPETQKGVIFYESHGKLEYKDIP (SMPETQKGVIFYESHGKLEYKDIP) | – | – | 0% | 140 ± 7%
